Laboratory results published in US20170275344A1, “POLYPEPTIDES AND USES THEREOF AS A DRUG FOR TREATMENT OF AUTOIMMUNE DISORDERS” (Compugen Ltd., priority 2014, published 2017).

Assays:
Assay type in all cases: in vivo, mouse
[1] = system: SJL/J mice; assay: Trafficking of transferred PLP139-151 sensitized cells into the CNS (flow cytometry)
Protocol: PLP139-151 sensitized cells were generated as described in Materials and Methods (cell counts in the reactivation culture are presented in Table 2) and labeled with PBSE (4 uM) before transfer to naïve mice. In study “Cgen data” (FIG. 12), disease was induced in recipient mice (n=10 per group) by i.v. transfer of 5×10^6 blast cells to each recipient mouse. A relatively large number of transferred cells were used in order to allow detection of the transferred cells by flow cytometry analysis at the end of the study. Mice were split into Control Ig and C1ORF32 ECD-Fc (SEQ ID NO:42) treatment groups, receiving 100 ug/dose intraperitoneal injection three times per week for 2 weeks. On Day +14 after cell transfer, 5 representative mice from each group were selected for analysis of trafficking of transferred cells into the CNS. Spleens, cervical lymph nodes, and CNS were collected, and the number of PBSE- or PBSE+/CD45+/CD3+/CD4+ T cells was analyzed by flow cytometric analysis.
An additional experiment (designated “MYC48 FACS”, FIG. 13) was performed using an alternative staining follow-up approach. SJL-Actin/GFP mice were primed with PLP139-151/CFA, and sensitized blast cells were generated as described in Materials and Methods (cell counts in the reactivation culture are presented in Table 2). On Day +3 of culture, PLP139-151 sensitized cells were collected and labeled with PBSE (4 uM). Disease was induced in the recipient mice (n=10 per group), by i.v. transfer of 5×10^6 blast cells/mouse. Beginning at the time of cell transfer, mice were treated with Control Ig or C1ORF32 ECD-Fc (SEQ ID NO:42) (100 ug/dose i.p. three times per week for 2 weeks). […] To evaluate C1ORF32 ECD-Fc (SEQ ID NO:42) effect on immune cell trafficking to the CNS, spleens, cervical lymph nodes, and CNS cells collected form 5 mice on day +10 post cell transfer, and the number of transferred CD45hi PBSE+ or GFP+ cells was analyzed by flow cytometry. […]

[2] = system: SJL/J mice; assay: T cell and Treg counts in spleen and CNS, day 44 of EAE with IL-10 or TGFb blockade (FACS)
From the text: On day 44 post disease induction, the rest of the mice were sacrificed and spleens and CNS were taken for cell counts and cell population analysis as described below.
2. The spleens and CNS were collected.
4. Experimental stains (CD45, CD3, CD4, CD25, FoxP3, Nrp-1, and Helios)
9. Gating scheme for flow: Singlets (FSC-A vs. FSC-H)->Cells (SSC-A vs. FSC-A)->Live (VID stain negative cells)->CD45hi->CD3/CD4+->CD25/FoxP3+->Helios/Nrp-1

[3] = system: male DBA-1 mice; assay: Established collagen-induced arthritis (CIA), therapeutic regimen
Protocol: Bovine type II collagen (CII) (RUNMC in house production, batch 03-04-08) at a concentration of 2 mg/ml in acetic acid 0.05M was emulsified in equal volumes of Freund's complete adjuvant (2 mg/ml of Mycobacterium tuberculosis strain H37Ra; Difco, Detroit, Mich.).
On day 0, 10-12 week old male DBA-1 mice (Janvier Elevage, France) (n=95) were immunized i.d. at the base of the tail with 100 μg of bovine CII. On day 21, mice received an intraperitoneal booster injection of 50 μg of CII dissolved in phosphate buffered saline (PBS), and the onset of arthritis occurred a few days after this booster.
Joint inflammation in each paw was scored visually, using a scale of 0-2 per paw with a maximal score of 8 per animal: 0=non inflamed, 1=mild inflammation, 1.5=marked inflammation, and 2=severe inflammation. Scoring was performed three times a week.
Treatment was started in established CIA early after onset of disease (i.e. therapeutic regimen), when the macroscopic scores per animal were between 0.25 and 1.25 (on a scale of 0-8). The i.p. injections were given three times per week for two weeks, after which the study was terminated and mice were terminally bled to collect serum. Thereafter, the knee and ankle joints were collected and stored in formalin. Histology was scored for inflammation and destruction on an arbitrary scale of 0-3, for five different parameters: • Joint inflammation • Cartilage proteoglycan (PG) depletion • Chondrocyte death • Cartilage erosion • Bone erosion
1. Negative control: PBS 2. Negative control mIgG2A (Bioxcell, BE0085): 10 mg/kg 3. C1ORF32 ECD-Fc (SEQ ID NO:42): 10 mg/kg 4. C1ORF32 ECD-Fc (SEQ ID NO:42): 5 mg/kg 5. Positive control: Enbrel (Wyeth, F01421) 5 mg/kg
Joints were fixed for at least 4 days in 4% formaldehyde, decalcified in 5% formic acid, and subsequently dehydrated and embedded in paraffin. Standard frontal sections of 7 μm were mounted on SuperFrost slides (Menzel-Glaser, Braunschweig, Germany). Haematoxylin and eosin (H&E) staining was performed to study joint inflammation. The severity of inflammation in the joints was scored on a scale of 0-3 (0=no cells, 1=mild cellularity, 2=moderate cellularity, and 3=maximal cellularity). To study proteoglycan (PG) depletion from the cartilage matrix, sections were stained with safranin O (SO) followed by counterstaining with fast green. Depletion of PG was determined using an arbitrary scale of 0-3, ranging from normal, fully stained cartilage to destained cartilage, fully depleted of PGs. Chondrocyte death was scored on a scale of 0-3 ranging from no loss of chondrocyte nuclei to complete empty cartilage surface. The degree of cartilage surface erosion was scored on a scale of 0-3, ranging from no damage to complete loss of articular cartilage. Bone destruction was graded separately on a scale of 0-3, ranging from no damage to the complete loss of bone structure. Histopathological changes in the joint were scored on three semiserial sections of the joint spaced 70 μm apart. Scoring was performed in a blindfolded manner.
Statistical analysis: Disease course data was analyzed using one-way ANOVA with repeated measures, with a Bonferroni's post-test of selected pairs to determine statistical differences between C1ORF32 ECD-Fc (SEQ ID NO:42) and Enbrel treated mice, each as compared to Control Ig (IgG2a) treated group.

B1: C1ORF32 ECD-Fc (SEQ ID NO:42): fusion protein of human C1ORF32 ECD fused to mouse immunoglobulin Fc (human-mouse fusion protein) (protein)
chain: LQVTVPDKKKVAMLFQPTVLRCHFSTSSHQPAVVQWKFKSYCQDRMGESLGMSSTRAQSLSKRNLEWDPYLDCLDSRRTVRVVASKQGSTVTLGDFYRGREITIVHDADLQIGKLMWGDSGLYYCIITTPDDLEGKNEDSVELLVLGRTGLLADLLPSFAVEIMGSENLYFQGSGEPRGPTIKPCPPCKCPAPNLLGGPSVFIFPPKIKDVLMISLSPIVTCVVVDVSEDDPDVQISWFVNNVEVHTAQTQTHREDYNSTLRVVSALPIQHQDWMSGKEFKCKVNNKDLPAPIERTISKPKGSVRAPQVYVLPPPEEEMTKKQVTLTCMVTDFMPEDIYVEWTNNGKTELNYKNTEPVLDSDGSYFMYSKLRVEKKNWVERNSYSCSVVHEGLHNHHTTKSFSRTPGK
modifications: Fusion protein human C1ORF32-ECD fused to mouse IgG2a Fc
**Q.** Which “number of transferred CD4+ T cells within the CNS” value ([1]; study Cgen data, treatment from time of cell transfer) does the source give for B1 here?
**A.** decrease

**Q.** And the “number of total or activated transferred T cells in the spleen and cervical lymph nodes” value ([1]; study MYC48 FACS, day +10)?
**A.** No change

**Q.** What about the “number of GFP+ and PBSE+ transferred cells in the CNS” value ([1]; study MYC48 FACS, day +10 post cell transfer) of the same molecule?
**A.** decrease

**Q.** And the “NRP+/Helios+ Treg subpopulation in the spleen” value ([2]; administered concomitantly with anti-TGFβ)?
**A.** increase

**Q.** What about the “Nrp+/HeliosLo Treg subpopulation in the spleen” value ([2]; alone or concomitantly with anti-TGFβ) of the same molecule?
**A.** trend of increase

**Q.** And the “T cell counts in the spleen (mainly CD4+)” value ([2]; day 44)?
**A.** increase

**Q.** What about the “effects on CNS and spleen cell counts following concomitant neutralization of IL-10 or TGF-β” value ([2]; day 44) of the same molecule?
**A.** not observed

**Q.** What about the “leukocytes and T cell counts in the CNS (CD45+, CD4+, and CD25+/FoxP3+)” value ([2]; day 44) of the same molecule?
**A.** pronounced decrease

**Q.** What about the “Nrp-/HeliosLo Treg subpopulation in the spleen” value ([2]; treatment alone) of the same molecule?
**A.** upregulation

**Q.** And the “clinical (macroscopic) scores of arthritis” value ([3]; 5 mg/kg i.p. 3x/wk for 2 wks)?
**A.** did not demonstrate any effect

**Q.** What about the “clinical (macroscopic) scores of arthritis” value ([3]; 10 mg/kg i.p. 3x/wk for 2 wks, p<0.001 vs mIgG2a) of the same molecule?
**A.** significantly reduced the clinical scores of arthritis

**Q.** And the “histological arthritis pathology of ankle joints” value ([3]; 10 mg/kg, after two weeks of therapy, did not reach statistical significance)?
**A.** trend of reduced arthritis pathology

**Q.** And the “results over three CIA studies” value ([3]; three studies)?
**A.** excellent results in two studies and weak results in one study
